In the Immune Epitope Database (IEDB):

Experiments:
HLA-A*29:02 = assay: IEDB peptide-MHC binding, purified MHC/competitive/radioactivity; filed as Kd, often an IC50 or EC50 that approximates it; ≥ and ≤ were set here for values at or beyond the usual limits of such assays
HLA-A*30:02 = assay: as above
HLA-A*01:01 = assay: as above
HLA-A*24:02 = assay: as above
HLA-A*26:01 = assay: as above
HLA-A*23:01 = assay: as above
HLA-A*02:01 [1] = assay: IEDB peptide-MHC binding, purified MHC/competitive/fluorescence; ≥ and ≤ were set here for values at or beyond the usual limits of such assays
HLA-A*68:01 = assay: IEDB peptide-MHC binding, purified MHC/competitive/radioactivity; filed as Kd, often an IC50 or EC50 that approximates it; ≥ and ≤ were set here for values at or beyond the usual limits of such assays; conditions: source organism: Vaccinia virus WR
HLA-A*03:01 = assay: as above; conditions: source organism: Vaccinia virus WR
HLA-A*31:01 = assay: as above; conditions: source organism: Vaccinia virus WR
HLA-A*33:01 = assay: as above; conditions: source organism: Vaccinia virus WR
HLA-A*11:01 = assay: as above; conditions: source organism: Vaccinia virus WR
HLA-B*58:01 = assay: IEDB peptide-MHC binding, purified MHC/direct/fluorescence; filed as Kd, often an IC50 or EC50 that approximates it; ≥ and ≤ were set here for values at or beyond the usual limits of such assays; conditions: source organism: Mammarenavirus juninense
HLA-A*02:01 [2] = assay: as above
[3] = source organism: SARS coronavirus Tor2
[4] = source organism: Zaire ebolavirus
[5] = source organism: Dengue virus 1 Brazil/97-11/1997
[6] = source organism: Mammarenavirus brazilense
[7] = source organism: Mammarenavirus machupoense
[8] = source organism: Sudan ebolavirus
[9] = source organism: Dengue virus 4 Philippines/H241/1956
[10] = source organism: Lassa virus Josiah
[11] = source organism: Mammarenavirus whitewaterense
[12] = source organism: Mammarenavirus guanaritoense
[13] = source organism: Lassa virus GA391
[14] = source organism: Dengue virus 3 Martinique/1243/1999

ATEETFKLSY
Kd (HLA-A*29:02; [3]): 0.224 µM
Kd (HLA-A*30:02; [3]): 0.387 µM
Kd (HLA-A*01:01; [3]): 0.0544 µM
Kd (HLA-A*24:02; [3]): ≥ 70.3 µM
Kd (HLA-A*26:01; [3]): 11.7 µM
Kd (HLA-A*23:01; [3]): ≥ 52.5 µM

ATGFGTNET
IC50 (HLA-A*02:01 [1]; [4]): ≥ 393 µM

ATLLAVSGVY
Kd (HLA-A*30:02; [5]): 0.00247 µM
Kd (HLA-A*01:01; [5]): 4.92 µM
Kd (HLA-A*26:01; [5]): 2.29 µM

AYVNQAHHI
Kd (HLA-A*29:02; [6]): ≥ 73.3 µM
Kd (HLA-A*24:02; [6]): 0.0662 µM
Kd (HLA-A*23:01; [6]): 0.0476 µM

CGDPSSFEY
Kd (HLA-A*29:02; [7]): 0.834 µM
Kd (HLA-A*30:02; [7]): 0.421 µM
Kd (HLA-A*01:01; [7]): 0.0394 µM
Kd (HLA-A*24:02; [7]): ≥ 64.1 µM
Kd (HLA-A*26:01; [7]): ≥ 77.9 µM
Kd (HLA-A*23:01; [7]): ≥ 77.7 µM

CTPPALNCY
Kd (HLA-A*29:02; [3]): 1.3 µM
Kd (HLA-A*30:02; [3]): 4.79 µM
Kd (HLA-A*01:01; [3]): ≥ 69.4 µM
Kd (HLA-A*24:02; [3]): ≥ 77.6 µM
Kd (HLA-A*26:01; [3]): ≥ 43.6 µM
Kd (HLA-A*23:01; [3]): ≥ 32.4 µM

DMFLTSVINR
Kd (HLA-A*68:01): 0.0102 µM
Kd (HLA-A*29:02; source organism: Vaccinia virus WR): ≥ 42.9 µM
Kd (HLA-A*03:01): 0.965 µM
Kd (HLA-A*31:01): 0.00658 µM
Kd (HLA-A*33:01): 0.0023 µM
Kd (HLA-A*11:01): 2.42 µM

EIEPKLDGYY
Kd (HLA-A*29:02; [3]): 7.39 µM
Kd (HLA-A*30:02; [3]): 0.534 µM
Kd (HLA-A*01:01; [3]): 0.0551 µM
Kd (HLA-A*24:02; [3]): ≥ 70.3 µM
Kd (HLA-A*26:01; [3]): 0.163 µM
Kd (HLA-A*23:01; [3]): ≥ 70 µM

ELSPRWYFYY
Kd (HLA-A*29:02; [3]): 0.00801 µM
Kd (HLA-A*30:02; [3]): 0.0601 µM
Kd (HLA-A*01:01; [3]): 0.0914 µM
Kd (HLA-A*24:02; [3]): 9.44 µM
Kd (HLA-A*26:01; [3]): 0.00404 µM
Kd (HLA-A*23:01; [3]): 8.81 µM

ETEPPFGESY
Kd (HLA-A*01:01; [5]): 0.00528 µM
Kd (HLA-A*26:01; [5]): 0.134 µM

EYADVFHLYL
Kd (HLA-A*29:02; [3]): 0.16 µM
Kd (HLA-A*30:02; [3]): 1.35 µM
Kd (HLA-A*01:01; [3]): 0.0855 µM
Kd (HLA-A*24:02; [3]): 0.0167 µM
Kd (HLA-A*26:01; [3]): 1.97 µM
Kd (HLA-A*23:01; [3]): 0.00955 µM

FMNAVGHDW
Kd (HLA-B*58:01): 0.071 µM

FRSGVPPKV
IC50 (HLA-A*02:01 [1]; [8]): ≥ 169 µM

FSSLPSYAAY
Kd (HLA-A*29:02; [3]): 0.00885 µM
Kd (HLA-A*30:02; [3]): 0.00277 µM
Kd (HLA-A*01:01; [3]): 0.00204 µM
Kd (HLA-A*24:02; [3]): ≥ 70.3 µM
Kd (HLA-A*26:01; [3]): 0.261 µM
Kd (HLA-A*23:01; [3]): ≥ 70 µM

GIKCIKKGV
IC50 (HLA-A*02:01 [1]; source organism: Vaccinia virus): ≥ 102 µM

GLAGLQTDV
Kd (HLA-A*02:01 [2]; source organism: Giardia intestinalis): 0.175 µM

GTGPEASLPY
Kd (HLA-A*29:02; [3]): 0.117 µM
Kd (HLA-A*30:02; [3]): 0.92 µM
Kd (HLA-A*01:01; [3]): 0.349 µM
Kd (HLA-A*24:02; [3]): ≥ 70.3 µM
Kd (HLA-A*26:01; [3]): 0.412 µM
Kd (HLA-A*23:01; [3]): ≥ 70 µM

GVAGLITGG
IC50 (HLA-A*02:01 [1]; [4]): ≥ 77 µM

GVPLLAMGCY
Kd (HLA-A*30:02; [9]): 0.105 µM

GYCLTRWMLI
Kd (HLA-A*29:02; [10]): 12.2 µM
Kd (HLA-A*24:02; [10]): 1.1 µM
Kd (HLA-A*23:01; [10]): 0.242 µM

HDHHFTPQI
Kd (HLA-A*29:02; [11]): ≥ 78.9 µM
Kd (HLA-A*30:02; [11]): ≥ 76.9 µM
Kd (HLA-A*01:01; [11]): ≥ 78.1 µM
Kd (HLA-A*24:02; [11]): ≥ 77.5 µM
Kd (HLA-A*26:01; [11]): ≥ 77.9 µM
Kd (HLA-A*23:01; [11]): ≥ 45.3 µM

HLTTLATIS
IC50 (HLA-A*02:01 [1]; [4]): 69.8 µM

HSVGFDYVY
Kd (HLA-A*29:02; [3]): 0.157 µM
Kd (HLA-A*30:02; [3]): 0.0119 µM
Kd (HLA-A*01:01; [3]): 14.9 µM
Kd (HLA-A*24:02; [3]): ≥ 77.6 µM
Kd (HLA-A*26:01; [3]): 0.586 µM
Kd (HLA-A*23:01; [3]): ≥ 77.8 µM

IILFQKAFS
IC50 (HLA-A*02:01 [1]; [8]): 67.7 µM

ILDGKNCTL
Kd (HLA-A*02:01 [2]; source organism: Influenza A virus (A/turkey/Canada-Ontario/NS-01839-1/05(H3))): 0.0951 µM

ILWDYFSLV
Kd (HLA-A*02:01 [2]; source organism: Mammarenavirus amapariense): 0.0002 µM

ISEPTIHLV
Kd (HLA-A*29:02; [12]): ≥ 78.9 µM
Kd (HLA-A*30:02; [12]): 4.89 µM
Kd (HLA-A*01:01; [12]): 0.626 µM
Kd (HLA-A*24:02; [12]): ≥ 77.5 µM
Kd (HLA-A*26:01; [12]): ≥ 77.9 µM
Kd (HLA-A*23:01; [12]): 15.4 µM

ISQHNYRPGY
Kd (HLA-A*30:02; [5]): 0.0838 µM
Kd (HLA-A*01:01; [5]): 11.1 µM

ISSTPFAEY
Kd (HLA-A*30:02; [9]): 0.319 µM
Kd (HLA-A*01:01; [9]): 1.89 µM

KATLTEGVY
Kd (HLA-A*30:02; [9]): 0.0401 µM

KDFKCFNLI
Kd (HLA-A*29:02; [13]): ≥ 78.9 µM
Kd (HLA-A*30:02; [13]): ≥ 33.6 µM
Kd (HLA-A*01:01; [13]): 1.18 µM
Kd (HLA-A*24:02; [13]): 0.792 µM
Kd (HLA-A*26:01; [13]): ≥ 77.9 µM
Kd (HLA-A*23:01; [13]): 0.395 µM

KWDLLKYDF
Kd (HLA-A*29:02; [3]): 0.00495 µM
Kd (HLA-A*30:02; [3]): 0.0893 µM
Kd (HLA-A*01:01; [3]): ≥ 78.1 µM
Kd (HLA-A*24:02; [3]): ≥ 28.4 µM
Kd (HLA-A*26:01; [3]): ≥ 77.9 µM
Kd (HLA-A*23:01; [3]): 12.7 µM

KYTDRKWCF
Kd (HLA-A*24:02; [14]): 0.138 µM
Kd (HLA-A*23:01; [14]): 0.18 µM

LAYVVIGLLF
Kd (HLA-A*23:01; [5]): 0.0364 µM

LFQLIFFLT
Kd (HLA-A*30:02; [6]): 6.09 µM
Kd (HLA-A*01:01; [6]): 3.33 µM
Kd (HLA-A*24:02; [6]): ≥ 22.3 µM
Kd (HLA-A*26:01; [6]): ≥ 77.9 µM

LFWAVKPKI
Kd (HLA-A*29:02; [6]): 9.35 µM
Kd (HLA-A*24:02; [6]): 2.77 µM
Kd (HLA-A*23:01; [6]): 2.12 µM

LIGNENYLDY
Kd (HLA-A*01:01; [5]): 6.08 µM

LKILVLSIL
Kd (HLA-A*29:02; [12]): 15.1 µM
Kd (HLA-A*30:02; [12]): 11 µM
Kd (HLA-A*01:01; [12]): 0.272 µM
Kd (HLA-A*24:02; [12]): 1.83 µM
Kd (HLA-A*26:01; [12]): ≥ 32.6 µM
Kd (HLA-A*23:01; [12]): 11.1 µM
